Results reported in publication PMC11372007, “Characterization of a GDS(L)-like hydrolase from Pleurotus sapidus with an unusual SGNH motif” (AMB Express, 2024).

Legend:
purified protein [1] = substrate: CCCC(=O)Oc1ccc([N+](=O)[O-])cc1; assay: purified protein; assay type: biochemical, Pleurotus sapidus; conditions: apparent constant, esterase assay: potassium phosphate pH 7.0, 0.5% v/v Triton X-100, 30 °C
purified protein [2] = substrate: CCCCCCCC(=O)Oc1ccc([N+](=O)[O-])cc1; assay: purified protein; assay type: biochemical, Pleurotus sapidus; conditions: apparent constant, esterase assay: potassium phosphate pH 7.0, 0.5% v/v Triton X-100, 30 °C

B1: PSA_Lip (Pleurotus sapidus) (protein)
chain: AVLPRDAPNGVHLAVDPKCGVAGGRFGDVNIGLKPLTSYEHIVAFGDSWTDGGAHNGEPLPPPVLTPPNPRAGGRASNGPVWVEKLASAAGATLLDFAEIGAVTDKNIWPSSLLPTTASSANDFVGQAHNYINQRNGFDPETTLYTIFLGVGDFDLSQQTGTDNLYTVAGAIVYTILELTSYPTYAKNIIVVDNYGRGIYETPSGDAFKEGIYAGLNTLHTRYGTSVGFVDLKTLWDGVLGSSPGYEAFGYTSKAACLPSSTSTSGACANPESTFYWLPGIPSAATHGLIADYVEKVLTTC
notes: no tag told; semi-native gel band ~118 kDa
Purified protein [1]
  Km: 1.22 mmol/L
  Vmax: 109 µM/min
  kcat: 1.95 s⁻¹
  kcat/Km: 1610 M⁻¹ s⁻¹
Purified protein [2]
  Km: 0.33 mmol/L
  Vmax: 122 µM/min
  kcat: 2.19 s⁻¹
  kcat/Km: 6560 M⁻¹ s⁻¹
